Assay results as given in US20110206701A1 (AbbVie / Abbott, published 2011).

Biological target: T1, CS1 (CD2-subset 1) (human, UniProt Q9NQ25 23-335)
T1 construct: whole, on cells; In the immunohistochemistry the protein stood in formalin-fixed, paraffin-embedded tissue sections; also called SLAMF7; CRACC
Assay: flow cytometry on normal blood NK and NK/T cells, directly conjugated antibody

binding result: binds
B1: HuLuc63 (elotuzumab), humanized anti-CS1 antibody (antibody, V domains shown)
VH: EVQLVESGGGLVQPGGSLRLSCAASGFDFSRYWMSWVRQAPGKGLEWIGEINPDSSTINYAPSLKDKFIISRDNAKNSLYLQMNSLRAEDTAVYYCARPDGNYWYFDVWGQGTLVTVSS
VL: DIQMTQSPSSLSASVGDRVTITCKASQDVGIAVAWYQQKPGKVPKLLIYWASTRHTGVPDRFSGSGSGTDFTLTISSLQPEDVATYYCQQYSSYPYTFGQGTKVEIK
